PMC7694997

Molecular target: Mycoplasma penetrans methionyl-tRNA synthetase, full-length, M568A variant (Mycoplasma penetrans)
Assay: SEC-MALS; size exclusion chromatography with multiangle light scattering of the purified enzyme in solution; conditions not told in the main text

“Mycoplasma penetrans methionyl-tRNA synthetase, full-length, M568A variant (enzyme)” gave a stoichiometry N of 2.
